# Assay results taken from patent publication US20210261650A1 (published 2021).
# Target: SARS-CoV-2 Spike (S) protein on pseudotyped virus or live SARS-CoV-2 (SARS-CoV-2 (BetaCoV/Wuhan-Hu-1/2019 for …, UniProt P0DTC2 14-1273))
# Assay: cell-based or functional assay
binder,measurement,value
"SARS-CoV-2 S310 mAb (antibody, V domains shown) VH: QVQLVQSGAELKKPGSSVKVSCKASGGTFNSYSFNWVRQAPGQGLEWLGGIIPVLGTSNYAQKFQGRVAVTADEFTTTAYMELSSLRSEDTAVYYCATRTYDSSGYRPYYYGLDVWGQGTPVTVSS VL: QSALTQPASVSGSPGQSITISCTGTSSDVGSYNLVSWYQQRPGKAPELMIYEVTKRPSGLSNRFSGSKSGNTASLTISGLQAEDEADYYCCSYAGSDTVIFGGGTKVTVL","Percent neutralization of infection, dilution 2",-4%
same,"Percent neutralization of infection, dilution 6",-15%
same,"Percent neutralization of infection, dilution 18",-15%
same,"Percent neutralization of infection, dilution 54",-6%
